Source: paper doi:10.1101/2021.07.15.452438 (bioRxiv, 2021)
Changes are numbered by the printed parent chain. Names and notes keep the numbering of the source. Read-outs that look alike come from different tables or passages of the source. Each block holds one binder with its values, some of them ahead of it.

Experiments:
BRD4-ET domain (for ITC) [1] = molecular target: T1, BRD4-ET domain (for ITC) (UniProt O60885 600-678); experiment: ITC
TurboID-BRD4-ET = TurboID-BRD4-ET (UniProt O60885 600-678); experiment: proximity labelling
GST-BRD3^562-640 = GST-BRD3^562-640 (UniProt Q15059 562-640); experiment: pull-down
Chain of GST-BRD3^562-640 (Q15059 562-640): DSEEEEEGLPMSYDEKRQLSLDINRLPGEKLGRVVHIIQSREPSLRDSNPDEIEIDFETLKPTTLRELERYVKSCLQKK

GST-BRD2^632-710 = GST-BRD2^632-710 (UniProt P25440 632-710); experiment: pull-down
Chain of GST-BRD2^632-710 (P25440 632-710): as the sequence (Q15059 562-640) above, with G8S, L9R, R25K, S40A, D51E, T63S, K73L, Q77R counted along it

BRD4-ET domain (for ITC) [2] = molecular target: T1, BRD4-ET domain (for ITC); experiment: ITC; remark: listed apart in the source
GST-BRD4^600-678 = GST-BRD4^600-678 (UniProt O60885 600-678); experiment: pull-down

Kd (BRD4-ET domain (for ITC) [1]): 1.36 µM
Binder: PKVPPIRIQLSRIKPPWVVKG (domain or fragment) [His6MBP-fused ASXL1^567-587]

binding result (GST-BRD4^600-678): binds
B5: His6MBP-ASXL1^537-587 with the motif arginine mutated to alanine (domain or fragment)
chain: EKKPRLEDRQSFRNTIESVHTEKPQPTKEEPKVPPIAIQLSRIKPPWVVKG

binding result (GST-BRD4^600-678): binds
B6: His6MBP-ASXL1^537-587 Q575A (domain or fragment)
chain: B5 chain with A37R, Q39A

Second part, the binder before the results:

B1: His6MBP-ASXL2^582-634 (domain or fragment)
chain: EKRPRVTENRQHQQPFQVSPQPFLNRGDRIQVRKVPPLKIPVSRISPMPFHPS
Kd (BRD4-ET domain (for ITC) [1]): 1.1 µM

B2: ASXL1^Y591X (domain or fragment)
chain: MKDKQKKKKERTWAEAARLVLENYSDAPMTPKQILQVIEAEGLKEMRSGTSPLACLNAMLHSNSRGGEGLFYKLPGRISLFTLKKDALQWSRHPATVEGEEPEDTADVESCGSNEASTVSGENDVSLDETSSNASCSTESQSRPLSNPRDSYRASSQANKQKKKTGVMLPRVVLTPLKVNGAHVESASGFSGCHADGESGSPSSSSSGSLALGSAAIRGQAEVTQDPAPLLRGFRKPATGQMKRNRGEEIDFETPGSILVNTNLRALINSRTFHALPSHFQQQLLFLLPEVDRQVGTDGLLRLSSSALNNEFFTHAAQSWRERLADGEFTHEMQVRIRQEMEKEKKVEQWKEKFFEDYYGQKLGLTKEESLQQNVGQEEAEIKSGLCVPGESVRIQRGPATRQRDGHFKKRSRPDLRTRARRNLYKKQESEQAGVAKDAKSVASDVPLYKDGEAKTDPAGLSSPHLPGTSSAAPDLEGPEFPVESVASRIQAEPDNLARASASPDRIPSLPQETVDQEPKDQKRKSFEQAASASFPEKKPRLEDRQSFRNTIESVHTEKPQPTKEEPKVPPIRIQLSRIKPPWVVKGQPT
fold enhancement of BRD4-ET binding over full-length ASXL1 (TurboID-BRD4-ET): 3.5 fold
fold enhancement of ET-domain binding over full-length ASXL1, peptide […] (TurboID-BRD4-ET): ~3 fold

B3: His6MBP-ASXL3^977-1027 (domain or fragment)
chain: EKRARIEDDQSTRNISSSSPPEKEQPPREEPRVPPLKIQLSKIGPPFIIKS
Kd (BRD4-ET domain (for ITC) [1]): 2 µM

B4: His6MBP-ASXL1^537-587 (domain or fragment)
chain: B5 chain with A37R
binding result (GST-BRD3^562-640): binds
binding result (GST-BRD2^632-710): binds
Kd (BRD4-ET domain (for ITC) [1]): 1.3 µM
Kd (BRD4-ET domain (for ITC) [2]): 0.535 µM
